B1: anti-ZIKV MAb 289-3 (antibody, V domains shown)
VH: QEELEESGGDLVKPGASLTLTCKASGFSFSSGAYICWVRQAPGKGPEWIACIYTGDGRTYYANWAKRRFTISSSSSTTVALEMPSLTDADTATYFCARAIAVGAGYGVGNYFTLWGPGTLVTVSS
VL: DIVMTQTPSSVSAAVGGTVTINCHASENIYGYLSWYQQKPGQPPKLLIYKASTLASGVPSRFKGSGAGTQFTLTITALECADAATYYCQSYYTSSSNADGSENAFGGGTEVVVE
B2: anti-ZIKV MAb 78-2 (antibody, V domains shown)
VH: QQQLVESGGGLVKPGASLTLNCKASGLDFSTNSYMCWVRQAPGKGLEWIACIYVGDSSEIYYASWAKGRFTISKTSSTTVTLQMTSLTAADTATYFCARDLPSFTAPYAGYLRLWGPGTLVTVSS
VL: QPVLTQPPSLSASLGTTARLTCTLRTGYNVGDYPLLWLQRVPGRPPRYLLTYHTEEFKHQGSGVHSRFSGSKDASENAGVLSISGLQPEDEANYYCYTVHATESSLHYVFGGGTQLTVT
B3: framework region (FWR) amino acid reverted anti-ZIKV MAb 102-1 (antibody, V domains shown)
VH: QSLEESGGDLVKPGASLTLTCTASGFSFNSNYWMCWVRQAPGKGLEWIACVFGGIHVTYYASWAKGRFTISKTSSTTVTLQMTSLTAADTATYFCIISTGGSHRFNLWGPGTLVTVSS
VL: DVVMTQTPSPVSAAVGGTVTINCQASESIYTYLSWYQQKPGQPPKLLIYRASTLESGVPSRFKGSGSGTQFTLTISDLECADAATYYCQATDVGGSGRGAFGGGTEVVVE
notes: rabbit IgG; 9 FWRH and 9 FWRL residues reverted to the germ line
B4: anti-ZIKV MAb 306-2 (antibody, V domains shown)
VH: QSLEESGGDLVKPGASLTLTCTASGFDFSDRYYMCWVRQAPGKGLEWIGCIYVGSGDTYYASWAKGRFTISRTSSTTVTLQMTRLTAADTATYFCARHPGTYFTLWGPGTLVTVSS
VL: DVVMTQTPSSVSAAVGGTVTINCQASQNIVNNLAWYQQRPGQPPKLLIYDTSTLASGVPSRFKGSGSGTEFTLTISDLECADAATYYCQTYYYYNKIINGFGGGTEVVVK
B5: framework region (FWR) amino acid reverted anti-ZIKV MAb 306-2 (antibody, V domains shown)
VH: QSLEESGGDLVKPGASLTLTCTASGFDFSDRYYMCWVRQAPGKGLEWIACIYVGSGDTYYASWAKGRFTISKTSSTTVTLQMTSLTAADTATYFCARHPGTYFTLWGPGTLVTVSS
VL: DVVMTQTPSPVSAAVGGTVTINCQASQNIVNNLSWYQQKPGQPPKLLIYDTSNLASGVPSRFKGSRSGTEFTLTISDLECADAATYYCQTYYYYNKIINGFGGGTEVVVK
notes: rabbit IgG; 3 FWRH and 5 FWRL residues reverted to the germ line; also called allele reverted MAb 306-2; MAb 306-2 with amino acid reverted to allele
B6: anti-ZIKV MAb 11-3 (antibody, V domains shown)
VH: QEQLVESGGGLVQPEGSLTITCTGSGFSFSSRFYMCWVRQAPGKGLEWIACIYGGSSGSTYYASWAKGRFTISKTSSTTVTLQISSLTAADTATYFCARGGSTAAAGFNLWGPGTLLTVSS
VL: DVVMTQTPASVSATVGGTVTIKCQASEDIYNLLAWYQQKPGQPPKLLIYYASTLASGVPSRFKGSGSGTEFTLTISDLECADAATYYCQCNDYGGTYVPNAFGGGTEVVVK
notes: recombinant rabbit IgG
B7: anti-ZIKV MAb 242-3 (antibody, V domains shown)
VH: QAQLEESGGDLVKPEGSLTLTCTASGFSFTDRHYMCWIRQAPGKGLEWIACVYPGSSGSTYYASWARGRFTISKTSSTTVTLRMTSLTAADTATYFCARSSYPDSSGYSYGMDLWGPGTLVTVSS
VL: DIVMTQTPASVEAAVGGTVTIKCQASQNINSNLAWYQQKPGQRPKFLMYLTSKLASGVPSRFRGSGSGTQFTLTISDLECADAATYYCQTYYDISNYGYAFGGGTEVVVK
notes: recombinant rabbit IgG; 99% amino acid identity with 270-12
B8: anti-ZIKV MAb 270-12 (antibody, V domains shown)
VH: QAQLEESGGDLVKPEGSLTLTCTASGFSFTDRHYMCWVRQAPGKGLEWIACVYPGSSGSTYYASWARGRFTISKTSSTTVTLRMTSLTAADTATYFCARSSYPDSSGYSYGMDLWGPGTLVTVSS
VL: DIVMTQTPASVEAAVGGTVTIKCQASQDINSNLAWYQQKPGQRPKFLMYLTSKLASGVPSRFRGSGSGTQFTLTISDLECADAATYYCQTYYDISNYGYAFGGGTEVVVK
notes: source: 293-6E cells, cotransfected, purified (MabSelect SuRe protein A)

Tests used:
[1] = target: T1, ZIKV E protein (Suriname Z1106033) (Zika virus, Suriname Z1106033, UniProt A0A0U4DG08, strain); experiment: cell-based or functional assay
[2] = target: T2, wild-type ZIKV prM/E (ZIKV SPH2015) (Zika virus, SPH2015, UniProt A0A0U3FSM8, strain); experiment: flow cytometry on cells; details: one partner purified
T2 construct: also called WT prM/E; wild-type prM/E; source: HEK-293T, transfected, cells fixed and permeabilised

[3] = target: T3, ZIKV virus-like particles (Suriname Z1106033) (Zika virus, Suriname Z1106033, UniProt A0A0U4DG08, strain); experiment: BLI; Octet HTX; MAb 0.1 to 0.3 μg/mL amine-coupled to AR2G biosensor; ZIKV-VLP 0.1 to 1.0 μg/mL or ZIKV E protein 0.2 to 2 μg/mL in 1x kinetic buffer; association 900 s, dissociation 1,200 s; Langmuir 1:1 model; average of two runs; details: both partners purified
T3 construct: also called ZIKV-VLP; VLP; source: bought: The Native Antigen Company

[4] = target: T1, ZIKV E protein (Suriname Z1106033); experiment: as above; details: both partners purified
[5] = target: ZIKV prM/E (ZIKV SPH2015), E T397A (Zika virus (ZIKV SPH2015)); experiment: flow cytometry on cells
[6] = target: ZIKV prM/E (ZIKV SPH2015), E G182A (Zika virus (ZIKV SPH2015)); experiment: flow cytometry on cells
[7] = target: ZIKV prM/E (ZIKV SPH2015), prM G59A (Zika virus (ZIKV SPH2015)); experiment: flow cytometry on cells
[8] = target: ZIKV prM/E (ZIKV SPH2015), E H398A (Zika virus (ZIKV SPH2015)); experiment: flow cytometry on cells
[9] = target: ZIKV prM/E (ZIKV SPH2015), E G337A (Zika virus (ZIKV SPH2015)); experiment: flow cytometry on cells
[10] = target: ZIKV prM/E (ZIKV SPH2015), E S368A (Zika virus (ZIKV SPH2015)); experiment: flow cytometry on cells
[11] = target: ZIKV prM/E (ZIKV SPH2015), E E370A (Zika virus (ZIKV SPH2015)); experiment: flow cytometry on cells
[12] = target: ZIKV prM/E (ZIKV SPH2015), E T369A (Zika virus (ZIKV SPH2015)); experiment: flow cytometry on cells
[13] = target: ZIKV prM/E (ZIKV SPH2015), E I317A (Zika virus (ZIKV SPH2015)); experiment: flow cytometry on cells
[14] = target: ZIKV prM/E (ZIKV SPH2015), prM V60A (Zika virus (ZIKV SPH2015)); experiment: flow cytometry on cells
[15] = target: ZIKV prM/E (ZIKV SPH2015), E H399A (Zika virus (ZIKV SPH2015)); experiment: flow cytometry on cells
[16] = target: ZIKV prM/E (ZIKV SPH2015), E E162A (Zika virus (ZIKV SPH2015)); experiment: flow cytometry on cells
[17] = target: ZIKV prM/E (ZIKV SPH2015), prM E58A (Zika virus (ZIKV SPH2015)); experiment: flow cytometry on cells
[18] = target: ZIKV prM/E (ZIKV SPH2015), E K301A (Zika virus (ZIKV SPH2015)); experiment: flow cytometry on cells
[19] = target: ZIKV prM/E (ZIKV SPH2015), prM D57A (Zika virus (ZIKV SPH2015)); experiment: flow cytometry on cells
[20] = target: ZIKV prM/E (ZIKV SPH2015), E T309A (Zika virus (ZIKV SPH2015)); experiment: flow cytometry on cells
[21] = target: ZIKV prM/E (ZIKV SPH2015), E G302A (Zika virus (ZIKV SPH2015)); experiment: flow cytometry on cells
[22] = target: ZIKV prM/E (ZIKV SPH2015), E T335A (Zika virus (ZIKV SPH2015)); experiment: flow cytometry on cells
[23] = target: T1, ZIKV E protein (Suriname Z1106033); experiment: BLI; Octet HTX; 2 μg/mL MAb captured on protein G biosensor in 0.1% BSA-PBST; 3 μg/mL ZIKV E protein associated 600 s, dissociated 900 s; details: both partners purified
[24] = target: T3, ZIKV virus-like particles (Suriname …); experiment: Luminex bead assay; VLP conjugated to MagPlex beads (EDC/NHS); 10,000 beads/mL with 10 μg/mL to 0.0002 ng/mL MAb, 90 min, room temperature, 1% BSA in D-PBS; detected with phycoerythrin-labeled anti-rabbit IgG; details: both partners purified
[25] = target: ZIKV prM/E (ZIKV SPH2015), E G100A (Zika virus (ZIKV SPH2015)); experiment: flow cytometry on cells
[26] = target: ZIKV prM/E (ZIKV SPH2015), E L107A (Zika virus (ZIKV SPH2015)); experiment: flow cytometry on cells

Row | Binder | other [1] [ng/mL] | binding result [2] | Kd [3] [pM] | koff [3] [s⁻¹] | kon [3] [M⁻¹ s⁻¹] | Kd [4] [pM] | koff [4] [s⁻¹] | kon [4] [M⁻¹ s⁻¹] | other results
1 | B1 | 7.8 | binds | 300 | 4.58e-05 | 155000 | 290 | 3.68e-05 | 129000 | 
2 | B2 |  | binds | 190 | 4.28e-05 | 221000 | 100 | 1.94e-05 | 192000 | antibody binding reactivity (% WT) [5]: 147 % WT; antibody binding reactivity (% WT) [6]: 110 % WT; antibody binding reactivity (% WT) [7]: 117 % WT; antibody binding reactivity (% WT) [8]: 92.9 % WT; antibody binding reactivity (% WT) [9]: 59.7 % WT; antibody binding reactivity (% WT) [10]: 87.5 % WT; antibody binding reactivity (% WT) [11]: 92.7 % WT; antibody binding reactivity (% WT) [12]: 113 % WT; antibody binding reactivity (% WT) [13]: 61.2 % WT; antibody binding reactivity (% WT) [14]: 113 % WT; antibody binding reactivity (% WT) [15]: 97.2 % WT; antibody binding reactivity (% WT) [16]: 101 % WT; antibody binding reactivity (% WT) [17]: 130 % WT; antibody binding reactivity (% WT) [18]: 82.5 % WT; antibody binding reactivity (% WT) [19]: 123 % WT; antibody binding reactivity (% WT) [20]: 96.2 % WT; antibody binding reactivity (% WT) [21]: 69.2 % WT; antibody binding reactivity (% WT) [22]: 71.6 % WT
3 | B3 |  |  |  |  |  |  |  |  | binding result [23]: binds; binding result [24]: binds
4 | B4 | 10500 | binds | 400 | 6.34e-05 | 160000 | 170 | 2.04e-05 | 117000 | 
5 | B5 |  |  |  |  |  |  |  |  | binding result [23]: binds; binding result [24]: binds
6 | B6 |  |  | 570 | 7.13e-05 | 125000 | 1530 | 0.000137 | 89800 | 
7 | B7 | 42.8 | binds | 240 | 4.93e-05 | 202000 | 1220 | 8.16e-05 | 67100 | antibody binding reactivity (% WT) [5]: 111 % WT; antibody binding reactivity (% WT) [6]: 85.6 % WT; antibody binding reactivity (% WT) [7]: 94.9 % WT; antibody binding reactivity (% WT) [8]: 77.2 % WT; antibody binding reactivity (% WT) [9]: 48.3 % WT; antibody binding reactivity (% WT) [10]: 89.1 % WT; antibody binding reactivity (% WT) [12]: 34.5 % WT; antibody binding reactivity (% WT) [25]: 70.3 % WT; antibody binding reactivity (% WT) [13]: 112 % WT; antibody binding reactivity (% WT) [14]: 97.2 % WT; antibody binding reactivity (% WT) [15]: 127 % WT; antibody binding reactivity (% WT) [16]: 79.6 % WT; antibody binding reactivity (% WT) [17]: 96.8 % WT; antibody binding reactivity (% WT) [18]: 78.7 % WT; antibody binding reactivity (% WT) [19]: 91.9 % WT; antibody binding reactivity (% WT) [20]: 104 % WT; antibody binding reactivity (% WT) [21]: 68.3 % WT; antibody binding reactivity (% WT) [22]: 36.2 % WT; antibody binding reactivity (% WT) [26]: 122 % WT
8 | B8 |  | binds | 310 | 4.27e-05 | 140000 | 1040 | 9.8e-05 | 94500 | MNT titer, IC50 (microneutralization of ZIKV PRVABC59 on Vero cells) [1]: 0.0372 µg/mL

— PMC9175631 (Journal of Virology, 2022)
